We go through one substance from PMC2835542.

The target in this experiment is human epidermal growth factor receptor (EGFR), stably over-expressed on rat 9L gliosarcoma cells (human) (UniProt P00533). Briefly: X-gal staining of live cells incubated with β-gal-labelled ligand complex.

On to “EGF ligand-complex with full-length β-gal reporter (EGF-B-SA-B-β-gal)”, for which the percent of cells labelled is greater than 75%.
